From US20260098059A1 (ENDOMET BIOSCIENCES, published 2026)
Values joined by “and” are separate entries in the source; they are usually repeats but may differ in a detail not shown here. Equal values may be shown once. Where no end group is shown, it is not given here.

T1: β-catenin (UniProt P35222 134-665, limits assumed, biotinylated in the SPR and plate assays)
T1 sequence (looked up): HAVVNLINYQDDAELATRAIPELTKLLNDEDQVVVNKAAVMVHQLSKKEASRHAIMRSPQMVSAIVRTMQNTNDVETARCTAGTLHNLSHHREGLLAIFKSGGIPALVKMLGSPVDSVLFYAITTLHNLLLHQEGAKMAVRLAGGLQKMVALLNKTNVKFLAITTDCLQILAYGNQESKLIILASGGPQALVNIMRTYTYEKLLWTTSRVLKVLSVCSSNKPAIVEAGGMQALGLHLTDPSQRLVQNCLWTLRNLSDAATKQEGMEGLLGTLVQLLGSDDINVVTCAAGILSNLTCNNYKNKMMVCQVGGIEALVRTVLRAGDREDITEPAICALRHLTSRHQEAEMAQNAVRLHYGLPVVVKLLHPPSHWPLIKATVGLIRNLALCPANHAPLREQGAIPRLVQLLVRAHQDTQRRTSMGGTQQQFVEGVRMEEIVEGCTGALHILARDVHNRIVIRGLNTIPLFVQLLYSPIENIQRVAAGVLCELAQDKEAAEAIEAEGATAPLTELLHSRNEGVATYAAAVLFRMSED

B1: SEQ ID NO: 107 (peptide)
peptide: MWFLISFW-NH2
B2: SEQ ID NO: 72 (peptide)
peptide: MSRMWFLISFW-NH2
B3: SEQ ID NO: 91 (peptide)
peptide: WSRHWFLISFW-NH2
B4: SEQ ID NO: 83 (peptide)
peptide: KSRMWFLISFW-NH2
B5: SEQ ID NO: 79 (peptide)
peptide: WSRMWFLISFW-NH2
B6: SEQ ID NO: 73 (peptide)
peptide: MTRMWFLISFW-NH2
B7: SEQ ID NO: 84 (peptide)
peptide: RSRMWFLISFW-NH2
B8: SEQ ID NO: 105 (peptide)
peptide: MSRMWFLISSW
HELM: PEPTIDE1{M.S.R.M.W.F.L.I.S.[CCOC[C@H](N[*:1])C(=O)[*:2]].W}$$$$V2.0
SMILES: CCOC[C@H](NC(=O)[C@H](CO)NC(=O)[C@@H](NC(=O)[C@H](CC(C)C)NC(=O)[C@H](Cc1ccccc1)NC(=O)[C@H](Cc1c[nH]c2ccccc12)NC(=O)[C@H](CCSC)NC(=O)[C@H](CCCNC(=N)N)NC(=O)[C@H](CO)NC(=O)[C@@H](N)CCSC)[C@@H](C)CC)C(=O)N[C@@H](Cc1c[nH]c2ccccc12)C(=O)O
B9: SEQ ID NO: 94 (peptide)
peptide: KSRHWFLISFW-NH2
B10: SEQ ID NO: 77 (peptide)
peptide: MSRFWFLISFW-NH2
B11: SEQ ID NO: 93 (peptide)
peptide: KSRKWFLISFW-NH2
B12: SEQ ID NO: 76 (peptide)
peptide: MSRTWFLISFW-NH2
B13: SEQ ID NO: 81 (peptide)
peptide: FSRMWFLISFW-NH2
B14: SEQ ID NO: 32 (peptide)
peptide: KSRMWYLISFW
HELM: PEPTIDE1{K.S.R.M.W.Y.L.I.S.F.W}$PEPTIDE1,PEPTIDE1,1:R3-11:R2$$$V2.0
SMILES: CC[C@H](C)[C@@H]1NC(=O)[C@H](CC(C)C)NC(=O)[C@H](Cc2ccc(O)cc2)NC(=O)[C@H](Cc2c[nH]c3ccccc23)NC(=O)[C@H](CCSC)NC(=O)[C@H](CCCNC(=N)N)NC(=O)[C@H](CO)NC(=O)[C@@H](N)CCCCNC(=O)[C@H](Cc2c[nH]c3ccccc23)NC(=O)[C@H](Cc2ccccc2)NC(=O)[C@H](CO)NC1=O
B15: SEQ ID NO: 86 (peptide)
peptide: ESRMWFLISFW-NH2
B16: SEQ ID NO: 78 (peptide)
peptide: MSRWWFLISFW-NH2
B17: SEQ ID NO: 87 (peptide)
peptide: MSRKWFLISFW-NH2
B18: SEQ ID NO: 95 (peptide)
peptide: KSRWWFLISFW-NH2
B19: SEQ ID NO: 99 (peptide)
peptide: H-MSRMWFLISSW-OH
B20: SEQ ID NO: 80 (peptide)
peptide: MSRMWWLISFW-NH2
B21: SEQ ID NO: 82 (peptide)
peptide: YSRMWFLISFW-NH2
B22: SEQ ID NO: 92 (peptide)
peptide: WSRWWFLISFW-NH2
B23: SEQ ID NO: 88 (peptide)
peptide: MSRHWFLISFW-NH2
B24: SEQ ID NO: 74 (peptide)
peptide: MQRMWFLISFW-NH2
B25: SEQ ID NO: 89 (peptide)
peptide: HSRMWFLISFW-NH2
B26: SEQ ID NO: 75 (peptide)
peptide: MSRRWFLISFW-NH2
B27: SEQ ID NO: 106 (peptide)
peptide: MSRMWFLISSW
HELM: PEPTIDE1{M.S.R.M.W.F.L.I.S.[O=C([C@H](COCc1ccccc1)N[*:1])[*:2]].W}$$$$V2.0
SMILES: CC[C@H](C)[C@H](NC(=O)[C@H](CC(C)C)NC(=O)[C@H](Cc1ccccc1)NC(=O)[C@H](Cc1c[nH]c2ccccc12)NC(=O)[C@H](CCSC)NC(=O)[C@H](CCCNC(=N)N)NC(=O)[C@H](CO)NC(=O)[C@@H](N)CCSC)C(=O)N[C@@H](CO)C(=O)N[C@@H](COCc1ccccc1)C(=O)N[C@@H](Cc1c[nH]c2ccccc12)C(=O)O
B28: SEQ ID NO: 85 (peptide)
peptide: DSRMWFLISFW-NH2
B29: SEQ ID NO: 90 (peptide)
peptide: WSRKWFLISFW-NH2
B30: SEQ ID NO: 98 (peptide)
peptide: WFLISFW-NH2
B31: SEQ ID NO: 100 (peptide)
peptide: H-WFLITTW-OH
B32: SEQ ID NO: 109 (peptide)
peptide: H-WFLISYW-OH
B33: SEQ ID NO: 97 (peptide)
peptide: H-WFLISSW-OH
B34: SEQ ID NO: 104 (peptide)
peptide: WFLISSW
HELM: PEPTIDE1{W.F.L.I.S.[CCOC[C@H](N[*:1])C(=O)[*:2]].W}$$$$V2.0
SMILES: CCOC[C@H](NC(=O)[C@H](CO)NC(=O)[C@@H](NC(=O)[C@H](CC(C)C)NC(=O)[C@H](Cc1ccccc1)NC(=O)[C@@H](N)Cc1c[nH]c2ccccc12)[C@@H](C)CC)C(=O)N[C@@H](Cc1c[nH]c2ccccc12)C(=O)O
B35: SEQ ID NO: 103 (peptide)
peptide: H-WFLISTW-OH
B36: SEQ ID NO: 101 (peptide)
peptide: WFLISSW
HELM: PEPTIDE1{W.F.L.I.S.[O=C([C@H](COCc1ccccc1)N[*:1])[*:2]].W}$$$$V2.0
SMILES: CC[C@H](C)[C@H](NC(=O)[C@H](CC(C)C)NC(=O)[C@H](Cc1ccccc1)NC(=O)[C@@H](N)Cc1c[nH]c2ccccc12)C(=O)N[C@@H](CO)C(=O)N[C@@H](COCc1ccccc1)C(=O)N[C@@H](Cc1c[nH]c2ccccc12)C(=O)O
B37: SEQ ID NO: 110 (peptide)
peptide: H-WFLISFW-OH
B38: SEQ ID NO: 113 (peptide)
peptide: H-KMWILICFWG-OH
B39: SEQ ID NO: 115 (peptide)
peptide: H-RMWILICFWG-OH
B40: SEQ ID NO: 124 (peptide)
peptide: H-RMWILISFWG-OH
B41: SEQ ID NO: 167 (peptide)
peptide: KMWFLICAWD
HELM: PEPTIDE1{K.M.W.F.L.I.C.A.W.D}$PEPTIDE1,PEPTIDE1,1:R3-10:R3$$$V2.0
SMILES: CC[C@H](C)[C@@H]1NC(=O)[C@H](CC(C)C)NC(=O)[C@H](Cc2ccccc2)NC(=O)[C@H](Cc2c[nH]c3ccccc23)NC(=O)[C@H](CCSC)NC(=O)[C@@H](N)CCCCNC(=O)C[C@@H](C(=O)O)NC(=O)[C@H](Cc2c[nH]c3ccccc23)NC(=O)[C@H](C)NC(=O)[C@H](CS)NC1=O
B42: SEQ ID NO: 114 (peptide)
peptide: H-HMWILICFWG-OH
B43: SEQ ID NO: 170 (peptide)
peptide: KMWFLICFWD
HELM: PEPTIDE1{K.M.W.F.L.I.C.F.W.D}$PEPTIDE1,PEPTIDE1,1:R3-10:R3$$$V2.0
SMILES: CC[C@H](C)[C@@H]1NC(=O)[C@H](CC(C)C)NC(=O)[C@H](Cc2ccccc2)NC(=O)[C@H](Cc2c[nH]c3ccccc23)NC(=O)[C@H](CCSC)NC(=O)[C@@H](N)CCCCNC(=O)C[C@@H](C(=O)O)NC(=O)[C@H](Cc2c[nH]c3ccccc23)NC(=O)[C@H](Cc2ccccc2)NC(=O)[C@H](CS)NC1=O

These binders were tested against T1, β-catenin (assay: cell-based or functional assay).
With B1 the “Wnt Reporter EC50” value was > 7.5 µM and ≤ 15 µM. In the case of B2, the “Wnt Reporter EC50” value is reported as greater than 30 µM. In the case of B3, the “Wnt Reporter EC50” value is reported as greater than 30 µM. In the case of B4, the “Wnt Reporter EC50” value is reported as greater than 30 µM. B5 was tested, and the “Wnt Reporter EC50” value was greater than 30 µM. With B6 the “Wnt Reporter EC50” value was greater than 30 µM. With B7 the “Wnt Reporter EC50” value was greater than 30 µM. With B8 the “Wnt Reporter EC50” value was > 7.5 µM and ≤ 15 µM. For B9, the “Wnt Reporter EC50” value was greater than 30 µM. With B10 the “Wnt Reporter EC50” value was greater than 30 µM. In the case of B11, the “Wnt Reporter EC50” value is reported as greater than 30 µM. In the case of B12, the “Wnt Reporter EC50” value is reported as greater than 30 µM. For B13, the “Wnt Reporter EC50” value was greater than 30 µM. In the case of B14, the “Wnt Reporter EC50” value is reported as greater than 30 µM. For B15, the “Wnt Reporter EC50” value was greater than 30 µM. B16 was tested, and the “Wnt Reporter EC50” value was greater than 30 µM. For B17, the “Wnt Reporter EC50” value was greater than 30 µM. With B18 the “Wnt Reporter EC50” value was greater than 30 µM. In the case of B19, the “Wnt Reporter EC50” value is reported as > 22.5 µM and ≤ 30 µM. With B20 the “Wnt Reporter EC50” value was greater than 30 µM. For B21, the “Wnt Reporter EC50” value was greater than 30 µM. For B22, the “Wnt Reporter EC50” value was > 15 µM and ≤ 22.5 µM. With B23 the “Wnt Reporter EC50” value was greater than 30 µM. In the case of B24, the “Wnt Reporter EC50” value is reported as greater than 30 µM. For B25, the “Wnt Reporter EC50” value was greater than 30 µM. With B26 the “Wnt Reporter EC50” value was greater than 30 µM. With B27 the “Wnt Reporter EC50” value was > 15 µM and ≤ 22.5 µM. B28 was tested, and the “Wnt Reporter EC50” value was greater than 30 µM. B29 was tested, and the “Wnt Reporter EC50” value was greater than 30 µM. B30 was tested, and the “Wnt Reporter EC50” value was greater than 30 µM. With B31 the “Wnt Reporter EC50” value was > 7.5 µM and ≤ 15 µM. With B32 the “Wnt Reporter EC50” value was > 7.5 µM and ≤ 15 µM. For B33, the “Wnt Reporter EC50” value was > 22.5 µM and ≤ 30 µM. With B34 the “Wnt Reporter EC50” value was > 7.5 µM and ≤ 15 µM. With B35 the “Wnt Reporter EC50” value was > 15 µM and ≤ 22.5 µM. For B36, the “Wnt Reporter EC50” value was > 7.5 µM and ≤ 15 µM. In the case of B37, the “Wnt Reporter EC50” value is reported as > 7.5 µM and ≤ 15 µM. With B38 the “Wnt Reporter EC50” value was greater than 30 µM. B39 was tested, and the “Wnt Reporter EC50” value was > 15 µM and ≤ 22.5 µM. With B40 the “Wnt Reporter EC50” value was > 7.5 µM and ≤ 15 µM. With B41 the “Wnt Reporter EC50” value was > 7.5 µM and ≤ 15 µM. With B42 the “Wnt Reporter EC50” value was no more than 7.5 µM. For B43, the “Wnt Reporter EC50” value was > 15 µM and ≤ 22.5 µM.
